Read-outs that look alike come from different tables or passages of the source.
What was measured:
Assay in all cases: liposome flotation
[1] = biological target: mArf1p (wild type or Q71L not told) (yeast) (UniProt P11076)
[2] = biological target: T1, Chs5–Chs6[all] complex (yeast, UniProt Q12114 1-671; P40955 1-746; Q05029 1-724; Q08754 1-746; P36122 1-765)
[3] = biological target: T1, Chs5–Chs6[all] complex; remark: listed apart in the source
[4] = biological target: Complex of Chs5p with two paralogues (Chs6p and Bch1p) (yeast, UniProt Q12114 1-671; P40955 1-746; Q05029 1-724)
Sequence of Complex of Chs5p with two paralogues (Chs6p and Bch1p) (Q12114 whole entry, chain 1 of 3): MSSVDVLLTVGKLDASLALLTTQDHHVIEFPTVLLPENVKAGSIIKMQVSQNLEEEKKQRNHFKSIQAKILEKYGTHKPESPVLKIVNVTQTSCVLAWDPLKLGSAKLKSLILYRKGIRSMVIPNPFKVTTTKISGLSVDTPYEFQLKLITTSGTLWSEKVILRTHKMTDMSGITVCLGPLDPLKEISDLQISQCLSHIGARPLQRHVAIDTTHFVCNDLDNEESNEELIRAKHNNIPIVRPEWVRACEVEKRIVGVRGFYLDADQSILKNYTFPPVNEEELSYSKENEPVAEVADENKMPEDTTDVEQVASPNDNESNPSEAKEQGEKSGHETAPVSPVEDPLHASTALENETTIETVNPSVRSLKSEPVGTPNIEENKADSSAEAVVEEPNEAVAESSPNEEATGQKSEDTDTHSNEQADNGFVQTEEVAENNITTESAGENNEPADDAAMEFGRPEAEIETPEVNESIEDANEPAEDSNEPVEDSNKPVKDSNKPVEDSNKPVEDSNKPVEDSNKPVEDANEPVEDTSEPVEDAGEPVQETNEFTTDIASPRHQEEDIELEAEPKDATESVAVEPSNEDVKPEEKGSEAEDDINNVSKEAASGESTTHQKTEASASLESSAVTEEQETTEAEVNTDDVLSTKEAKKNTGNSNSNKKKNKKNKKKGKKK
Sequence of Complex of Chs5p with two paralogues (Chs6p and Bch1p) (P40955 whole entry, chain 2 of 3): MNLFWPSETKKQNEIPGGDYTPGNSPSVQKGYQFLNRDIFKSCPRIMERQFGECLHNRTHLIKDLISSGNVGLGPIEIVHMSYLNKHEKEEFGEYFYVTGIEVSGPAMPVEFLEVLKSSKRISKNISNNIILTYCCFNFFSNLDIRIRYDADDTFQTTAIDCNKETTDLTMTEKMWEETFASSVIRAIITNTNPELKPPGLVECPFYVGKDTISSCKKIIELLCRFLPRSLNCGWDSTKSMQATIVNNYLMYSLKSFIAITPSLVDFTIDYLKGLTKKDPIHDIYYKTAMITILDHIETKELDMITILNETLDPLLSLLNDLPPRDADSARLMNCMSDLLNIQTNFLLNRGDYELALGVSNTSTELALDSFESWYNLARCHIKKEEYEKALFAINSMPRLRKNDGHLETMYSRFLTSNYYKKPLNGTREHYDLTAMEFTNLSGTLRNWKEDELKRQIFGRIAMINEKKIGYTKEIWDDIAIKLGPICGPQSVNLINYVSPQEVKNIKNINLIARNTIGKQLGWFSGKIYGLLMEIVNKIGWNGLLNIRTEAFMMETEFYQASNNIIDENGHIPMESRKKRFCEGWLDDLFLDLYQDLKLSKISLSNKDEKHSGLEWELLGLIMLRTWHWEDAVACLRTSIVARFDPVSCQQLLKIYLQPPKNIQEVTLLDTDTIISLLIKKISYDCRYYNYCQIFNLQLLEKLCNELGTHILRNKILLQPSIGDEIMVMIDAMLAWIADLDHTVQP
Sequence of Complex of Chs5p with two paralogues (Chs6p and Bch1p) (Q05029 whole entry, chain 3 of 3): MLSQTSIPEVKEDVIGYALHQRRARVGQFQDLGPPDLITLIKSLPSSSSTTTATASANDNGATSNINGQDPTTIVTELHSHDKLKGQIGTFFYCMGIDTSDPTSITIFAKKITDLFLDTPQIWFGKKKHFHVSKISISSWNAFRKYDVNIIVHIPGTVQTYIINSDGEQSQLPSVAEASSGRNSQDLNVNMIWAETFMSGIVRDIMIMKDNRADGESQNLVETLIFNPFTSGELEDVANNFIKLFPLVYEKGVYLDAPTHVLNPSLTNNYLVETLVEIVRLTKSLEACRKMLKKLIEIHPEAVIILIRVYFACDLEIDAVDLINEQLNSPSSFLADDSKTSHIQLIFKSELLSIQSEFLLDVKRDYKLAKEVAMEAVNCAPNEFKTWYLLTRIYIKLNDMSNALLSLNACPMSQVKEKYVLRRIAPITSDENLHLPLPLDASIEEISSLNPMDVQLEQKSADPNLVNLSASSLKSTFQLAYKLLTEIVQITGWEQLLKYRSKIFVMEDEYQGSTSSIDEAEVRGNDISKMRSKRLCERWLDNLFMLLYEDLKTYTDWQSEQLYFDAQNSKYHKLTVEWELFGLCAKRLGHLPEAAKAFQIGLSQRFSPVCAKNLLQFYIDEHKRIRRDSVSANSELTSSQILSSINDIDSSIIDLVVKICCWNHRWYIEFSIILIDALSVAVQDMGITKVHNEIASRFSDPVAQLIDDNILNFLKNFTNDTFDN

For “Chs5–Chs6[all] complex (from UniProt Q12114 1-671; P40955 1-746; Q05029 1-724; Q08754 1-746; P36122 1-765)”, the concentration of Chs5–Chs6[all] at which binding was saturated (∼1 μM mArf1p) [1] was 0.5 µM and the stoichiometry N (Arf1 per Chs5–Chs6[all] complex (molar)) [1] was 7.5.

B1: Recombinant myristoylated Arf1p (Q71L; GTPase deficient) (natural protein, yeast, UniProt P11076 1-181, looked up)
chain: MGLFASKLFSNLFGNKEMRILMVGLDGAGKTTVLYKLKLGEVITTIPTIGFNVETVQYKNISFTVWDVGGLDRIRSLWRHYYRNTEGVIFVVDSNDRSRIGEAREVMQRMLNEDELRNAAWLVFANKQDLPEAMSAAEITEKLGLHSIRNRPWFIQATCATSGEGLYEGLEWLSNSLKNST
modifications: N-myristoylated (>75% of the protein)
B1: binds [2].

B2: Myristoylated wild-type Arf1p (natural protein, yeast, UniProt P11076 1-181, looked up)
chain: MGLFASKLFSNLFGNKEMRILMVGLDGAGKTTVLYKLKLGEVITTIPTIGFNVETVQYKNISFTVWDVGGQDRIRSLWRHYYRNTEGVIFVVDSNDRSRIGEAREVMQRMLNEDELRNAAWLVFANKQDLPEAMSAAEITEKLGLHSIRNRPWFIQATCATSGEGLYEGLEWLSNSLKNST
modifications: N-myristoylated (>75% of the protein)
B2: binds [3]; binds [4].

— PMC2064389 (The Journal of Cell Biology, 2006)
